The results in this text go back to US20090304588A1.

In this test the target is T1, Hyperpolarization-activated cyclic-nucleotide-gated (HCN) ion channel 1 (HCN1).
T1 sequence (O60741 1-890, species assumed, looked up): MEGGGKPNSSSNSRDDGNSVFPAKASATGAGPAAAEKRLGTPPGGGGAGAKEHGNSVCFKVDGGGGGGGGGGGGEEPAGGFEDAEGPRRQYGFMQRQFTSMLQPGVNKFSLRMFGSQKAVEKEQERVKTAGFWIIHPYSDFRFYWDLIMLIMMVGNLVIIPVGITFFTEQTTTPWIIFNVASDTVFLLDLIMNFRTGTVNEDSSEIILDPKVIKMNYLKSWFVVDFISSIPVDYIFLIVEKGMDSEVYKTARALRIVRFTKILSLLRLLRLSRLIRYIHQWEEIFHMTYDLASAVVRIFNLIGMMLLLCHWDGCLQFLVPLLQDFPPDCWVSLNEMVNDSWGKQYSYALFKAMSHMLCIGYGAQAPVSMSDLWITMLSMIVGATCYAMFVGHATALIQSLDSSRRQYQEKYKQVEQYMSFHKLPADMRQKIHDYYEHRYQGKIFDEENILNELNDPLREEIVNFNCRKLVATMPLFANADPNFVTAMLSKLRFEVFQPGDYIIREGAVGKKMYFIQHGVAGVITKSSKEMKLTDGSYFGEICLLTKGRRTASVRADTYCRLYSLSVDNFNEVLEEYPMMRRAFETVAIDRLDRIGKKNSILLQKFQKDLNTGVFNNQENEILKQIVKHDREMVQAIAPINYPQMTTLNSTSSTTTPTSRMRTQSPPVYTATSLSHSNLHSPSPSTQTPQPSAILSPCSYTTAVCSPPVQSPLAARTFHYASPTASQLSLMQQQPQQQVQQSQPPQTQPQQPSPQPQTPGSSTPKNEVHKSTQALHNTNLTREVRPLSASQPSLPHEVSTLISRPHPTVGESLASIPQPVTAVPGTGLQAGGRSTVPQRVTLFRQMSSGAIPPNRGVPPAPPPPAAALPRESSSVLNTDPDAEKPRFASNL
Kind of test: cell-based or functional assay.

On to “S4TKv1.4GYS (human Kv1.4 with S4 triple mutation R447N, L448A, R453I and pore mutation G528S) (from UniProt P22459 1-653)”, for which the reversal potential of HCN co-transfected with SPC was -22 mV and the reversal potential of the current left after superfusion with Cs to block HCN1 homomultimers was -11.1 mV.
